Common to all, as to assay: cell-based or functional assay
Assay [1] addresses Chymotrypsin having an activity of approx. 40 BTEE units per mg.
The target is the same in assay [2]. The settings on record: scale: mg ChymoTrypsin inhibited/1 mgP-ChymoTrypsin Inhibitor.
The target in assay [3] is Trypsin having an activity of approx. 10,000 BAEE units per mg.
[4] abbreviates: scale: mg ChymoTrypsin inhibited/1 mgP-ChymoTrypsin Inhibitor.

“Bowman-Birk inhibitor (BBI) purified from soy flour”: in assay [1], the BBI activity of final product, after the change of the filtration process is 0.8 to 1.4 mg⁻¹; the BBI activity of final product, before the change of the filtration process is 0.4 to 0.6 mg⁻¹; the BBI activity, step: Final after lyophilization "as-is" (mg chymotrypsin inhibited per mg solid) amounted to 0.8; the Chymotrypsin inhibitor activity of purified BBI (mg chymotrypsin inhibited per mg) is 1.49. Also, in assay [1] (setting [4]), the BBI activity, step: BBI permeate of 30 Kda. was found to be 0.8; the BBI activity, step: BBI pool is 0.5; the BBI activity, step: Permeate of 5 KDa turned out to be 0.13; the BBI activity, step: Retentate of 5 KDa after 4.5 x concentration was determined as 0.8. In assay [1] (setting [4]), this substance gave a BBI activity, step: Retentate of 10 Kda after diafiltration of 0.7 and a BBI activity, step: Retentate of 30 KDa of 0.13. Besides, the BBI activity, final lyophilized product on the basis of dry weight in assay [1] (scale: mg chymotrypsin inhibited per mg dry weight) stood at 0.9. Moreover, in assay [1] (scale: not given), the BBI Activity, large-scale prep was 1.49 and the BBI Activity, previous procedure stood at 1.2. Besides, in assay [2], the BBI activity, step: BBI After formulation and microfiltration 0.45/0.2 worked out at 0.8; the BBI activity, step: BBI permeate, after 30 Kda UF and additional washes came to 0.8; the BBI activity, step: BBI pool is 0.6; the BBI activity, step: BBI pool after microfiltration 0.45/0.2 stood at 0.6. In assay [2], this substance had a BBI activity, step: Final after lyophilization of 0.9; a BBI activity, step: Retentate of 5 KDa after 5x concentration of 0.9; a BBI activity, step: Retentate of 10 Kda after diafiltration of 1.
On to “SBTI intermediate (crude soybean trypsin inhibitor preparation from soy flour)”, for which, in assay [1], the BBI activity, quality control of material loaded on the DEAE column is 0.09 not printed and the Chymotrypsin inhibitor activity of SBTI intermediate (large-scale prep) (mg chymotrypsin inhibited per mg protein) came out at 0.98. In assay [3], the KTI activity, quality control of material loaded on the DEAE column was found to be 0.97 not printed and the Trypsin inhibitor activity of SBTI intermediate (large-scale prep) (mg trypsin inhibited per mg protein) stood at 1.34.
